Experimental data reported in publication PMC3976097.
pKd: −log10 of the molar value.

Tests used:
[1] = target: Recombinant human IFN-α/β R2-Fc chimera (human) (UniProt P48551)
[2] = target: Recombinant human IFN-α/β R2-Fc chimera (human) (UniProt P48551); experiment: SPR; BIAcore T-100; human IFNR2-Fc captured on a CM5 chip by an immobilized anti-human IgG Fc antibody; Nova or IFN-α2b in the solution phase; binding measured under equilibrium conditions

Sequence of UniProt P48551 (P48551 27-243, change not shown): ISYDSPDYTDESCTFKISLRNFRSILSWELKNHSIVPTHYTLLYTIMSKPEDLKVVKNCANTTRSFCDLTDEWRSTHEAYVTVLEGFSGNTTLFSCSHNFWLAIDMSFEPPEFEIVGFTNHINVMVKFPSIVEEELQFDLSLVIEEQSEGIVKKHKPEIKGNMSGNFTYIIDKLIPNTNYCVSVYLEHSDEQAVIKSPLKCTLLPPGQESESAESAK

anti-tumor activity against Daudi cell lines (MTT anti-proliferative assay) [1]: 2.74e+10 U/mg | anti-virus activity, WISH/VSV system (cytopathic effect reduction assay) [1]: 1.34e+09 | pKd [2]: 10.91
Substance: Novaferon (ligand)
